Reference: US20250188188A1 (DIANTHUS THERAPEUTICS OPCO, published 2025)

Tests used:
[1] = target: T1, active human C1s purified from human serum (CompTech, Tyler, TX, catalog number A104) (human, UniProt P09871 16-437; P09871 438-688); assay: SPR (Biacore T100), 37 C pH 7.4, antibody captured via goat anti-human antibody, C1s in solution, n=2; Table 17 experiment, apart from Table 12
T1 construct: Serum-derived material, biotinylated for the ELISA; also called human active C1s; active C1s
T1 sequence 1: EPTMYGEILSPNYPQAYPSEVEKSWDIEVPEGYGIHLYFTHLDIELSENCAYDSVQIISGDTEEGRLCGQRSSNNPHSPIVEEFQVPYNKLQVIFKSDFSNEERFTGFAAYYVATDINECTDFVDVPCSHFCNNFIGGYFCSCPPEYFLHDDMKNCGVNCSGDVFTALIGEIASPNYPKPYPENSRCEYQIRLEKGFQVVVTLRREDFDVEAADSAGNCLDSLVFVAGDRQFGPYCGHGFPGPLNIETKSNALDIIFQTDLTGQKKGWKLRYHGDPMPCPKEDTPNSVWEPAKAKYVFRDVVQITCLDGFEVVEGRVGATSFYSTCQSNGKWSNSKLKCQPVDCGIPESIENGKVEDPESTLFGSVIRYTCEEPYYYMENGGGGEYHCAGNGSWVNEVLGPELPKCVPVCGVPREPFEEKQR
T1 sequence 2: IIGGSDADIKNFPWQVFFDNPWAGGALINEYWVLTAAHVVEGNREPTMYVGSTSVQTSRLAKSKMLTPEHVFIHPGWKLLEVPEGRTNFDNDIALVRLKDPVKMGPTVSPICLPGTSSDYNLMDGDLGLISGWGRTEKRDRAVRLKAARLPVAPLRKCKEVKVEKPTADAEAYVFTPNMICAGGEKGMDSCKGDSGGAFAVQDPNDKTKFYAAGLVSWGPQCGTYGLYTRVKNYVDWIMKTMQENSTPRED
Description: (§1) Binding of MAB39 and MAB9 to Human Active C1s at 37° C./pH 7.4 Measured by Surface Plasmon Resonance. Human active C1s purified from serum was procured from Complement Technologies, Tyler, TX (catalog number A104). Studies to evaluate MAB39 and MAB9 binding to human active C1s at 37° C. were performed on a Biacore 4000 and Biacore T100 (Cytiva, Marlborough, MA), respectively. Goat anti-human antibody (ThermoFisher, Waltham, MA, USA, catalog number H10500) was amine-coupled to a C1 sensor chip (Cytiva, Marlborough, MA, USA, catalog number BR100535). MAB39 was diluted to 6.67 nM and MAB9 was diluted to 10 nM in 50 mM HEPES pH 7.4, 150 mM NaCl, 1.3 mM Ca, 0.02% Tween-20, 1 mg/mL BSA (HBS). MAB39 was captured for 60 seconds to produce surface densities of 200 RU and MAB9 was captured for 30 seconds to produce surface densities of 10 to 20 RU. Human active C1s was tested for binding using a 3-fold titration series in HBS with a maximum concentration of 12.3 nM for MAB39 and 16 nM for MAB9. Data were processed by subtracting responses from a reference surface as well as a buffer injection. […]
(§2) Comparison of Binding Affinities of MAB39 and MAB9 to Human Active C1s by Surface Plasmon Resonance. The human active C1s association constant (ka), disassociation constant (kd) and affinity (KD) for MAB39 and MAB9 were determined in separate experiments (Table 17). […]

[2] = target: T1, active human C1s purified from human …; assay: cell-based or functional assay
[3] = target: T1, active human C1s purified from human …; assay: SPR (Biacore T100), 37 C pH 7.4, antibody captured via goat anti-human antibody, C1s in solution, n=2
Description: as §1, §2

[4] = target: T1, active human C1s purified from human …; assay: cell-based or functional assay; remark: listed apart in the source
[5] = target: T1, active human C1s purified from human …; assay: cell-based or functional assay; remark: listed apart in the source
[6] = target: T1, active human C1s purified from human …; assay: SPR, direct comparison
[7] = target: T1, active human C1s purified from human …; assay: cell-based or functional assay; remark: listed apart in the source
[8] = target: T1, active human C1s purified from human …; assay: cell-based or functional assay; remark: listed apart in the source

- Kd [1]: 0.0071 nM
- koff [3]: 0.00012 s⁻¹
- kon [3]: 1.69e+07 M⁻¹ s⁻¹
- IC50 in the RBC lysis assay (FIG. 4C) [4]: 17.6 nM
- fold improvement in potency (IC50, RBC lysis assay) against MAB2 (US20220380483A1) [4]: > 3 fold
- IC50, inhibition of Wieslab complement classical pathway (C5b-9 ELISA), 1% human serum [5]: 0.78 nM
- fold higher affinity than MAB2 (US20220380483A1) [6]: ~10 fold
B1: IgG4-MAB9 (MAB9 in human IgG4 with S228P, L235E and YTE) (antibody)
heavy: QVQLVESGGGLVKPGGSLRLSCAASGFTFSDYYMSWIRQAPGKGLEWVSYISRSGSTKYYADSVKGRFTISRDNAKNSLYLQMNSLRAEDTAVYYCARDENYALDWWGQGTLVTVSSASTKGPSVFPLAPCSRSTSESTAALGCLVKDYFPEPVTVSWNSGALTSGVHTFPAVLQSSGLYSLSSVVTVPSSSLGTKTYTCNVDHKPSNTKVDKRVESKYGPPCPPCPAPEFEGGPSVFLFPPKPKDTLYITREPEVTCVVVDVSQEDPEVQFNWYVDGVEVHNAKTKPREEQFNSTYRVVSVLTVLHQDWLNGKEYKCKVSNKGLPSSIEKTISKAKGQPREPQVYTLPPSQEEMTKNQVSLTCLVKGFYPSDIAVEWESNGQPENNYKTTPPVLDSDGSFFLYSRLTVDKSRWQEGNVFSCSVMHEALHNHYTQKSLSLSLG
light: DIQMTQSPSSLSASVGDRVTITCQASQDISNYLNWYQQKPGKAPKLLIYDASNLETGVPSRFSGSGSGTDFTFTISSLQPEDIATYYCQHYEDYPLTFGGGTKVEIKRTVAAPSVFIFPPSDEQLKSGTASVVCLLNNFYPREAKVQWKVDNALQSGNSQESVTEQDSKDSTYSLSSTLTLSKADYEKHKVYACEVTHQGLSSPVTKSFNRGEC
notes: also called MAB9 with constant domain PE and YTE mutations
- IC50, inhibition of sensitized hRBC lysis in 25% human serum [2]: 17.6 nM
- IC50, inhibition of sensitized hRBC lysis in 25% human serum, Donor 1 [7]: 12.9 nM
- IC50, inhibition of sensitized hRBC lysis in 25% human serum, Donor 2 [7]: 22.1 nM
- IC50, inhibition of sensitized hRBC lysis in 25% human serum, Donor 3 [7]: 5.8 nM
- IC50, inhibition of C3b deposition on sensitized hRBCs in 7.5% human serum (flow cytometry), Donor A [8]: 64.1 nM
- IC50, inhibition of C3b deposition on sensitized hRBCs in 7.5% human serum (flow cytometry), Donor B (1) [8]: 124 nM
- IC50, inhibition of C3b deposition on sensitized hRBCs in 7.5% human serum (flow cytometry), Donor B (2) [8]: 202 nM
